In US10697970B2, “S100A9 levels for predicting lenalidomide and erythropoietin responsiveness” (H. LEE MOFFITT CANCER CENTER AND RESEARCH INSTITUTE, INC., priority 2015, dated 2020):

What was measured:
MDS BM-MNC [1] = assay: qPCR of pyroptosis-related genes in lower-risk MDS BM-MNC treated with CD33-IgG1; format: cell-based, human; conditions: lower-risk MDS BM-MNC (n=5), 24 hours, versus autologous BM plasma alone
Procedure: RNA was isolated from BM-MNC using the RNeasy Mini Kit (Qiagen). cDNA was produced using the iScript cDNA Synthesis Kit (Bio-Rad). Sequences for primers can be found in Table 1. GAPDH mRNA was used for transcript normalization. cDNA was amplified using the iQ SYBR Green Supermix and the CFX96 Real-Time PCR Detection System (Bio-Rad). PCR conditions were as follows: 10 minutes at 95° C., followed by 40 cycles of amplification (15 seconds at 95° C. and 1 minute at 60° C.). Relative gene expression was calculated using the […] method.

MDS BM-MNC [2] = assay: Pyroptosis flow cytometry panel in MDS BM-MNC incubated with autologous BM plasma; format: cell-based, human
Procedure: For human samples, treated and untreated BM-MNC were incubated overnight in IMDM, supplemented with 10% autologous BM plasma. Subsequently, cells were harvested, washed twice in 1×PBS, and stained with LIVE/DEAD Violet fluorescent reactive dye according to the manufacturer's protocol (Life Technologies). Cells were resuspended in 1×PBS with 2% BSA, and incubated at room temperature for 15 minutes to block non-specific binding. After washing, cells were stained with 30×FAM-FLICA® Caspase-1 and Caspase-3/7 solution at a ratio of 1:30 for 2 hours at 37° C. Cells were washed and stained for cell surface receptors using CD38:PE-CF594, CD33:BV711, CD34:APC (BD Biosciences), and CD71:PE-Cyanine7 (eBioscience). All antibodies were diluted 1:20, and cells were stained for 30 minutes at 4° C. Cells were washed, resuspended in 1× binding buffer, and stained with Annexin-V:Cy5.5 at a dilution of 1:20 for 15 minutes at room temperature (BD Biosciences). 1× binding buffer was added to a final volume of 400 μL. Sample acquisitions were carried out using a BD LSR II flow cytometer and FACSDiva software (BD Biosciences). Calibration of the flow cytometer was carried out prior to each experiment using Rainbow Mid-Range Fluorescent Particles (BD Biosciences). To establish fluorescence compensation settings, ArC Amine Reactive Compensation Beads were used for LIVE/DEAD Violet staining (Life Technologies), and BD CompBead Plus Anti-Mouse Ig κ/Negative Control (BSA) Compensation Plus Particles were used for surface receptor conjugates (BD Biosciences). Data were analyzed using FlowJo 9.7.5 software (FlowJo, LLC, Ashland, Oreg.).

B1: CD33-IgG1: S100A9 high-affinity chimeric (CD33-IgG1) decoy receptor (protein)
chain: DPNFWLQVQESVTVQEGLCVLVPCTFFHPIPYYDKNSPVHGYWFREGAIISRDSPVATNKLDQEVQEETQGRFRLLGDPSRNNCSLSIVDARRRDNGSYFFRMERGSTKYSYKSPQLSVHVTDLTHRPKILIPGTLEPGHSKNLTCSVSWACEQGTPPIFSWLSAAPTSLGPRTTHSSVLIITPRPQDHGTNLTCQVKFAGAGVTTERTIQLNVTYVPQNPTTGIFPGDGSGKQETRAGVVH
modifications: left off: a dimerising Fc or GST
CASP3 expression (MDS BM-MNC [1]): markedly reduced
expression of CASP1, IL-1β, IL-18, and NLRP3 (MDS BM-MNC [1]): reduced
reduction of fraction of pyroptotic cells, maximum lineage-specific change, CD33+ cells (MDS BM-MNC [2]; CD33+ immature myeloids, 0.5 μg CD33-IgG1 or 0.1 μM IRAK4 inhibitor, 24 hours): 68%
reduction of fraction of pyroptotic cells, maximum lineage-specific change, progenitor cells (MDS BM-MNC [2]; CD34+CD38+ progenitor cells, 0.5 μg CD33-IgG1 or 0.1 μM IRAK4 inhibitor, 24 hours): 23%
reduction of fraction of pyroptotic cells, maximum lineage-specific change, stem cells (MDS BM-MNC [2]; CD34+CD38− stem cells, 0.5 μg CD33-IgG1 or 0.1 μM IRAK4 inhibitor, 24 hours): 44%
reduction of fraction of pyroptotic cells, maximum lineage-specific change, CD71+ cells (MDS BM-MNC [2]; CD71+ erythroids, 0.5 μg CD33-IgG1 or 0.1 μM IRAK4 inhibitor, 24 hours): 64%
fraction of pyroptotic cells across all lineages studied (MDS BM-MNC [2]; MDS BM-MNC (n=4), autologous BM plasma, 0.5 μg CD33-IgG1 or 0.1 μM IRAK4 inhibitor): marked reduction
MDSC fraction (MDS BM-MNC [2]; short-term treatment with the chimeric receptor): significantly reduced
